Experimental data taken from article PMC8800115, “The ASCC2 CUE domain in the ALKBH3–ASCC DNA repair complex recognizes adjacent ubiquitins in K63-linked polyubiquitin” (The Journal of Biological Chemistry, 2021).

Biological target: T1, K63-linked diubiquitin (UniProt P0CG48 1-76; P0CG48 1-76, K48R | K63R | D77 extension, distal ubiquitin: C-terminal G76 in an isopeptide bond with K63 of the proximal ubiquitin | proximal ubiquitin: K63 in an isopeptide bond with G76 of the distal ubiquitin)
T1 construct: ubiquitin, residues 1 to 76, K48R/K63R; distal position of K63Ub2; ubiquitin, residues 1 to 76, with a D77 extension; proximal position of K63Ub2; Two ubiquitins joined covalently; For NMR either the distal or the proximal ubiquitin was 15N-labelled; also called K63Ub2; WT K63Ub2
Assay: ITC; MicroCal iTC200; proteins dialysed in 20 mM Hepes pH 7.5, 150 mM NaCl, 200 μM TCEP; 2-μl injections; who was in the cell is not given; ranges of Kd are from fits with N fixed to 1 (first value: active concentration in the cell varied, second: in the syringe); Kd of S470R and E467R/S470R called apparent
Conditions: both partners purified

stoichiometry N: 1 ASCC2 per K63Ub2
B1: full-length ASCC2 (natural protein, human, UniProt Q9H1I8 1-757, looked up)
chain: MPALPLDQLQITHKDPKTGKLRTSPALHPEQKADRYFVLYKPPPKDNIPALVEEYLERATFVANDLDWLLALPHDKFWCQVIFDETLQKCLDSYLRYVPRKFDEGVASAPEVVDMQKRLHRSVFLTFLRMSTHKESKDHFISPSAFGEILYNNFLFDIPKILDLCVLFGKGNSPLLQKMIGNIFTQQPSYYSDLDETLPTILQVFSNILQHCGLQGDGANTTPQKLEERGRLTPSDMPLLELKDIVLYLCDTCTTLWAFLDIFPLACQTFQKHDFCYRLASFYEAAIPEMESAIKKRRLEDSKLLGDLWQRLSHSRKKLMEIFHIILNQICLLPILESSCDNIQGFIEEFLQIFSSLLQEKRFLRDYDALFPVAEDISLLQQASSVLDETRTAYILQAVESAWEGVDRRKATDAKDPSVIEEPNGEPNGVTVTAEAVSQASSHPENSEEEECMGAAAAVGPAMCGVELDSLISQVKDLLPDLGEGFILACLEYYHYDPEQVINNILEERLAPTLSQLDRNLDREMKPDPTPLLTSRHNVFQNDEFDVFSRDSVDLSRVHKGKSTRKEENTRSLLNDKRAVAAQRQRYEQYSVVVEEVPLQPGESLPYHSVYYEDEYDDTYDGNQVGANDADSDDELISRRPFTIPQVLRTKVPREGQEEDDDDEEDDADEEAPKPDHFVQDPAVLREKAEARRMAFLAKKGYRHDSSTAVAGSPRGHGQSRETTQERRKKEANKATRANHNRRTMADRKRSKGMIPS
notes: source: E. coli Rosetta (DE3), purified (HisTrap, Superdex 200)
